Target: CrtSPARTA (heterodimeric TIR-APAZ/short pAgo complex from Crenotalea thermophila) (Crenotalea thermophila)
Assay: cryo-EM structure

stoichiometry N (heterodimers in the assembly (octamer)): 4
stoichiometry N (heterodimers in the assembly (tetramer)): 2
Substance: CrtSPARTA (heterodimeric TIR-APAZ/short pAgo complex from Crenotalea thermophila)

Reference: doi:10.1101/2023.07.12.548734
